Test [1] addresses mouse recombinant sFRP-3 (R&D) (mouse) (UniProt P97401). Description: other fluorescence titration; competition: 250 nM native EGF added to 25 nM EGFAlexa488 prior to 100 nM sFRP-3, in PBS; spectrum of Alexa488, peak at 517 nm.
The next test addresses Alexa488-conjugated EGF. The test is described as above.

recombinant mouse EGF (ligand): the decrease of the EGFAlexa488 absorbance value at the emission peak when native EGF was added before sFRP-3 in test [1] was determined as 7 units.

B1: mouse recombinant sFRP-3 (R&D) (natural protein)
chain: AACEPVRIPLCKSLPWNMTKMPNHLHHSTQANAILAMEQFEGLLGTHCSPDLLFFLCAMYAPICTIDFQHEPIKPCKSVCERARQGCEPILIKYRHSWPESLACDELPVYDRGVCISPEAIVTADGADFPMDSSTGHCRGASSERCKCKPVRATQKTYFRNNYNYVIRAKVKEVKMKCHDVTAVVEVKEILKASLVNIPRDTVNLYTTSGCLCPPLTVNEEYVIMGYEDEERSRLLLVEGSIAEKWKDRLGKKVKRWDMKLRHLGLGKTDASDSTQNQKSGRNSNPRPARS
The molecule B1 yielded a decrease of the EGFAlexa488 absorbance value at the emission peak with Alexa488-conjugated EGF of 10 units.

(Values after paper PMC2424011.)
